Measurements from publication PMC11109976, “CSB and SMARCAL1 compete for RPA32 at stalled forks and differentially control the fate of stalled forks in BRCA2-deficient cells” (Nucleic Acids Research, 2024).
Blank lines part the entries; values can stand above or below the molecule they belong to.

Tests used:
[1] = molecular target: RPA32C C-terminal domain (Homo sapiens) (UniProt P15927); assay: ITC; details: cited from earlier work
[2] = molecular target: T1, RPA32 construct spanning the region 210-270 (UniProt P15927 210-270, RED-tris-NTA dye on the His tag); assay: MST; RPA32C labelled with RED-tris-NTA (His-tag labelling kit), 100 nM mixed 1:1 with 2-fold serial dilutions of the ligand; 50 mM HEPES pH 8.0, 400 mM NaCl, 10% glycerol, 0.05% Tween-20; incubated 30 min at 37°C, measured at 25°C; three replicates; details: both partners purified
T1 construct: RPA32, residues 210-270 (C-terminal winged helix domain); Cloned by LIC; also called RPA32(210-270); C-terminal winged helix domain of RPA32; source: E. coli SoluBL21, purified (Ni-NTA, anion exchange, SEC)
T1 sequence (P15927 210-270): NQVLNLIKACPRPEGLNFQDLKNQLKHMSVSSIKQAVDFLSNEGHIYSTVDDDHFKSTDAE

RPA32C C-terminal domain (Homo sapiens), sequence (P15927 202-270): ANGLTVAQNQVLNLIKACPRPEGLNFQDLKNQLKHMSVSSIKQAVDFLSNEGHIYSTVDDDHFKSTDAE

Molecule: SMARCAL1 peptide 5-30 (from UniProt Q9NZC9)
Kd [1]: 2.9 µM

Kd [2]: 470 µM
B1: SMARCAL1 peptide (residues 5-30) (peptide)
peptide: LTEEQRKKIEENRQKALARRAEKLLA
notes: SMARCAL1, residues 5-30; also called 26-amino acid SMARCAL1 peptide; source: synthetic peptide, bought: LifeTein, LLC
